Experimental data taken from the supplement of paper PMC12042874.
± gives the uncertainty stated by the source.

Test: amyloid nucleation score (Sup35N fusion, yeast selection) (log enrichment); library NNK3; higher = more nucleation; inactive = no reads after selection
Summary of the method: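 The nucleation score, computed with DiMSum, is the log enrichment of output over input reads, centred on the mode score of non-aggregating sequences. Sequences with under 100 input reads were dropped. Reads were generated by Illumina sequencing of plasmid inserts from psi-negative yeast with Sup35N fused to peptides of 20 random codons, induced with 100 μM copper sulfate for 24 hours and grown 7 days at 30°C on medium lacking adenine and uracil.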

Row | Substance | amyloid nucleation score
1 | LKRCRLQMAGYELSWDQGTM | inactive
2 | LKRLSCFTGSPR | inactive
3 | LKRNVNYVNLNVFRLFLK | inactive
4 | LKRYDVQSSTGVNLTYGTYT | inactive
5 | LKSSPFNYSVGIS | inactive
6 | LKVVLYGVHQSCEYMRSRLS | inactive
7 | LKYSSDQYLCRTFLGISGFG | inactive
8 | LLAWRHEMLMFVPDNLSYGG | inactive
9 | LLCLLQYLWPRRDSYYACLR | 0.782 ± 0.18
10 | LLCND | inactive
11 | LLCRE | inactive
12 | LLDSVDMLGFVMWVFGEVTN | inactive
13 | LLESTSF | inactive
14 | LLFENIQK | inactive
15 | LLGRKRA | inactive
16 | LLHHFFAVFDSARETKWDWD | 0.247 ± 0.34
17 | LLKLNS | inactive
18 | LLLFRGAYRLQISAFCLCTE | inactive
19 | LLLNMM | inactive
20 | LLLRCANHFCYMDATDIYFR | inactive
21 | LLLSEREGIYVVWVWCRWPV | inactive
22 | LLNPCKRSCVNLRMHTQPSS | inactive
23 | LLNYFRLMCYRSFL | inactive

Row | Substance | amyloid nucleation score
24 | LLRRNINMFSIQFFSRVTWL | -0.141 ± 0.96
25 | LLRTL | inactive
26 | LLSADFSFSSVEMKLARLGV | 1.22 ± 0.18
27 | LLSAMYNHPADMIAKLGKGG | inactive
28 | LLSDICFCYYAREIRNSGCS | inactive
29 | LLSIAVVDVPSRLSRCITLL | inactive
30 | LLTMHWVREWSDGLYCKGKL | inactive
31 | LLTVEVPLWKIFDAML | inactive
32 | LLVCSWC | 2.1 ± 0.093
33 | LLVSFLVVLSWAVRFSRMGD | inactive
34 | LLVVYIFTGPLTVPHVWTIE | inactive
35 | LMANVGPAWLQSFAIRGTSH | inactive
36 | LMCDWGVY | -0.175 ± 0.85
37 | LMDFLKYAMFRGTMVCW | inactive
38 | LMHGPMLVFRFVASNSCRER | inactive
39 | LMLRVHGMW | inactive
40 | LMNTYL | 1.71 ± 0.099
41 | LMPSDFISSYNSLYDGCLGG | inactive
42 | LMSNHCGKYWRHFSWIMTVF | inactive
43 | LMSSGVGLPFSDTSAWLIVW | inactive
44 | LMSTYVTFFRSCKPSSCVFV | inactive
45 | LMVASISNVQRRIVRVKLCD | inactive
46 | LMWTGF | inactive

Row | Substance | amyloid nucleation score
47 | LMYAVLGTQTVSLSAFKSR | -0.3 ± 1.1
48 | LNDLCKMPVSLFIHGLCLMT | inactive
49 | LNFDNRNFFGDMSAESATPF | inactive
50 | LNFNSWNGLKYR | inactive
51 | LNGMFG | inactive
52 | LNHGVCIFYDQFANLELPPR | 2.09 ± 0.067
53 | LNIRGSFCFYGSWIVADFHM | 0.336 ± 0.38
54 | LNKVIRCEAYRCKTMN | inactive
55 | LNLCTRLVFNPVTFQGNTFK | inactive
56 | LNMCLSLVSVLRAVSVYLWT | inactive
57 | LNPLMFKMRFLMEYNLAWGV | 0.891 ± 0.28
58 | LNVCVMEKNSNLRWSYWDLC | 1.09 ± 0.15
59 | LNVLAPFGWLARFIILAIP | inactive
60 | LNYVCCCIQSPPEFNIS | 3.36 ± 0.07
61 | LPFIRV | 0.007 ± 0.27
62 | LPMQYKLLSVFVADFFTIFV | -1.07 ± 1.7
63 | LPVPGTPLKKAVGGIIRGCG | inactive
64 | LQHWPRTFWMGSRYAYLFSL | inactive
65 | LQRIGIYMTTFCENRCPDAE | inactive
66 | LQRVFLENRTSVYSVTG | inactive
67 | LQSGDRIVTDSYVRAYTMHV | inactive
68 | LQTFDYQRVWNKCLSEFSLE | inactive
69 | LQVARIMVSWIDQCGENRTD | inactive

Row | Substance | amyloid nucleation score
70 | LQVSIRLTLTNHVDRHTMPM | 1.36 ± 0.15
71 | LQYNISVWELC | inactive
72 | LRAFMYLFTYKTWIRTSNGV | inactive
73 | LRAICKSCGVASGYVAAPRA | -0.478 ± 0.52
74 | LRASTPYHPMLFELGKLALI | inactive
75 | LRDTGWLIGLMCCSIQIGSG | 2.13 ± 0.069
76 | LRGARCYKSNRVIGVLCGSV | inactive
77 | LRHWRMRLSIGN | inactive
78 | LRKFFHLLQIIMERNINRSI | inactive
79 | LRLMAGNGSSKVGPIKMPWY | inactive
80 | LRLQRDPCSNSLSVLSCIFC | 2.63 ± 0.06
81 | LRLVTMSYWPRYLLRRKCIR | inactive
82 | LRNLNK | inactive
83 | LRPCRDRRFLVPDDYSSVFF | inactive
84 | LRPNLQSDVPRRYTMCGTHA | inactive
85 | LRSDMLVVPRIFFACFWSIK | inactive
86 | LRTWLL | inactive
87 | LRVLAP | 0.815 ± 0.16
88 | LRVRLCSGSSRIWLEVLVRR | inactive
89 | LRVYLLAWL | 0.781 ± 0.16
90 | LRWLDVLDHTLDIYVSNESI | inactive
91 | LRWYPVDMI | inactive
92 | LSDAR | inactive

Row | Substance | amyloid nucleation score
93 | LSDFL | inactive
94 | LSDGGAFLLIRHVFVWGFVT | inactive
95 | LSEIGIPVAVSFKPADSLGL | inactive
96 | LSFNTVDSPGRIYFRIWYGV | 1.07 ± 0.14
97 | LSGLFARRNQWWKYGLRRN | inactive
98 | LSGRIAKTKRLIVHRLCEEG | inactive
99 | LSGRVERVW | inactive
100 | LSHYVMVTYRAKGRMAGRIW | inactive
101 | LSIDEWRFSSANSTALECHV | inactive
102 | LSINTQTS | inactive
103 | LSKHS | inactive
104 | LSKVVLLVFKGTP | inactive
105 | LSLNSEVFGLSSTSNTVPFD | inactive
106 | LSMSYLMSVLLCDLQKVYNT | inactive
107 | LSNPTSRVLSYRTNM | inactive
108 | LSNVVGRATGKRTTSYHEDA | 0.43 ± 0.17
109 | LSPQSIVSYYTLWTFGFTAC | -0.28 ± 0.77
110 | LSQVFLVMFKF | inactive
111 | LSRGFYAS | inactive
112 | LSRLFLSRVGHVIYTKSSVD | inactive
113 | LSSETWRRLQIVSIHYGLVV | inactive
114 | LSSHS | inactive
115 | LSVCVIEHAWVFCRTPVQAF | inactive

Row | Substance | amyloid nucleation score
116 | LSVMLQ | 0.988 ± 0.19
117 | LSVYGLQGHSNHNRMDGISW | 0.718 ± 0.2
118 | LSWIASSGKGWSTTMCISTM | inactive
119 | LSWSGNSSAYKSIIR | inactive
120 | LSYYVFRYTNTHWSPCFYIE | inactive
121 | LTAYGNVNCV | inactive
122 | LTDSY | inactive
123 | LTGCRL | inactive
124 | LTIAIWVMYKDQYFCLWHLL | inactive
125 | LTIINRFEFRQKNINGTYRK | 2.73 ± 0.068
126 | LTSLLTARKNCTNFHN | inactive
127 | LTVLSCTAQVDHGIAYCLEV | inactive
128 | LTWYWKNGCSLLPLIGLSGN | inactive
129 | LVAGSTRTSLLVLRALGAWL | inactive
130 | LVDHLFDMITMHDGPCQLHQ | inactive
131 | LVDLGFMRRCSQSRLQDFCF | 0.832 ± 0.24
132 | LVEIIHVSLVFLP | inactive
133 | LVEMKALRTD | inactive
134 | LVFIWAKTHRHQLFVTEAEL | inactive
135 | LVGFRTGTALLDQMAL | inactive
136 | LVGTRRLSSYRHRFKWITIG | inactive
137 | LVHDLDLCSPGVSYQKSRMS | inactive
138 | LVIWHIVKTAVMWTARTERL | -0.409 ± 1.5

Row | Substance | amyloid nucleation score
139 | LVMNNRYLYSRFLLLV | -0.619 ± 0.73
140 | LVPVMTFNWPKPSNGVSAVA | -0.413 ± 1
141 | LVRRHSFSGYRRDT | inactive
142 | LVSCK | inactive
143 | LVSSMMIHVYFNEVLVFMIC | 0.796 ± 0.1
144 | LVTFFSGRYGHWWLDNCWRQ | inactive
145 | LVVPGYNLL | inactive
146 | LVVRNVEVPIHR | inactive
147 | LVVYSVGFWHR | -0.143 ± 0.48
148 | LVWHLHSSSCRARCRIGGGK | inactive
149 | LVYKLRGRCYERLYKWRLCD | inactive
150 | LVYNATYCSSMHHSGS | inactive
151 | LVYPSFLLFKSIASHDSTGD | inactive
152 | LWEDNVWVLKR | -0.1 ± 0.19
153 | LWGYDNDVNCCTMALNVHGV | 0.503 ± 0.3
154 | LWHKMSDMV | inactive
155 | LWKFSILAYRRFILFKLQMN | inactive
156 | LWMFDYKPRLVCQKSV | inactive
157 | LWSCPTDFRMCSVWLTLRVS | inactive
158 | LWVAVYMFGTCWMRDEVDDV | inactive
159 | LWVCNRGGTPTSVSSESRRE | -0.187 ± 1
160 | LWYTSSSRGWPISLSSMW | inactive
